Results reported in publication doi:10.1101/2023.05.26.542399.

Biological target: Arabidopsis thaliana PAXX (AtPAXX), full length, untagged (Arabidopsis thaliana)
Assay: crystal structure

- stoichiometry N: 2
Substance: Arabidopsis thaliana PAXX (AtPAXX), full length, untagged (natural protein)
